Experimental data taken from patent publication US20170204176A1 (MacroGenics, published 2017).

Tests used:
His-tagged human DR5 = target: T1, His-tagged human DR5 (human, UniProt O14763 56-210, limits assumed); experiment: Biacore (SPR); DR5 mAb 1×CD3 mAb 2 diabody with His-tagged human DR5
T1 construct: whole precursor entry named; also called His-tagged DR5; not shown: His tag

[1] = target: T2, His-tagged cynomolgus monkey DR5 (cynomolgus monkey (Macaca fascicularis)); experiment: Biacore (SPR); DR5 mAb 1×CD3 mAb 2 diabody with His-tagged cynomolgus monkey DR5
T2 construct: also called His-tagged DR5
Method: Bi-specific DR5×CD3 diabodies were incubated with His-tagged DR5 and the kinetics of binding was determined via Biacore analysis.

[2] = target: T3, EphA2 on DU145 human prostate cells (human, UniProt P29317 24-976); experiment: FACS on DU145 cells (gpA33- EphA2+ DR5+), Log MFI; only the EphA2 domain has its antigen on these cells
T3 construct: whole, on cells; DU145 cells carry both EphA2 and DR5; also called DU145 cells (express EphA2 and DR5, not gpA33)

[3] = target: T4, EphA2 on EphA2-expressing CHO cells (UniProt P29317 24-976, limits assumed); experiment: FACS on EphA2-expressing CHO cells (Log MFI)
T4 construct: whole, on cells; EphA2 mAb 1 is called an anti-human EphA2 antibody; also called EphA2-expressing CHO target cells

[4] = target: T5, DR5 on DR5-expressing CHO cells (UniProt O14763 56-440, limits assumed); experiment: FACS on DR5-expressing CHO cells (Log MFI)
T5 construct: whole, on cells; also called DR5-expressing CHO target cells
From the text: The ability of Tri-Specific Binding Molecules of the present invention to bind to target cells was investigated.

[5] = target: T6, DR5 on DU145 human prostate cells (human, UniProt O14763 56-440); experiment: FACS on DU145 cells (gpA33- EphA2+ DR5+), Log MFI
T6 construct: whole, on cells; DU145 cells carry both EphA2 and DR5; also called DU145 cells (express EphA2 and DR5, not gpA33)

[6] = target: T3, EphA2 on DU145 human prostate cells; experiment: FACS on DU145 cells (gpA33- EphA2+ DR5+), Log MFI

B1: DR5 mAb 1×CD3 mAb 2 diabody (bispecific antibody)
chain 1: DIVLTQSPASLAVSLGQRATISCRASKSVSSSGYSYMHWYQQKPGQPPKVLIFLSSNLDSGVPARFSGSGSGTDFTLNIHPVEDGDAATYYCQHSRDLPPTFGGGTKLEIKGGGSGGGGEVQLVESGGGLVQPGGSLRLSCAASGFTFSTYAMNWVRQAPGKGLEWVGRIRSKYNNYATYYADSVKGRFTISRDDSKNSLYLQMNSLKTEDTAVYYCVRHGNFGNSYVSWFAYWGQGTLVTVSSASTKGEVAACEKEVAALEKEVAALEKEVAALEK
chain 2: QAVVTQEPSLTVSPGGTVTLTCRSSTGAVTTSNYANWVQQKPGQAPRGLIGGTNKRAPWTPARFSGSLLGGKAALTITGAQAEDEADYYCALWYSNLWVFGGGTKLTVLGGGGSGGGGEVKFLESGGGLVQPGGSLKLSCVASGFDFSRYWMSWVRQAPGKGLEWIGEINPDSNTINYTPSLKDKFIISRDNAKNTLYLQMTKVRSEDTALYYCTRRAYYGNPAWFAYWGQGTLVTVSAASTKGKVAACKEKVAALKEKVAALKEKVAALKE
notes: Two-chain bi-specific DR5×CD3 diabody
His-tagged human DR5
  Kd: 0.14 nM
[1]
  Kd: 32.5 nM

B2: EphA2 mAb 1×CD3 mAb 2×gpA33 mAb 1 (other)
chain 1: DIQMTQTTSSLSASLGDRITISCRASQDISNYLNWYQQKPDGTVKLLIYYTSRLHSGVPSRFSGSGSGTDYSLTISNLEQEDIATYFCQQGYTLYTFGGGTKLEIKGGGSGGGGEVQLVESGGGLVQPGGSLRLSCAASGFTFSTYAMNWVRQAPGKGLEWVGRIRSKYNNYATYYADSVKGRFTISRDDSKNSLYLQMNSLKTEDTAVYYCVRHGNFGNSYVSWFAYWGQGTLVTVSSGGCGGGEVAALEKEVAALEKEVAALEKEVAALEKGGGDKTHTCPPCPAPEAAGGPSVFLFPPKPKDTLMISRTPEVTCVVVDVSHEDPEVKFNWYVDGVEVHNAKTKPREEQYNSTYRVVSVLTVLHQDWLNGKEYKCKVSNKALPAPIEKTISKAKGQPREPQVYTLPPSREEMTKNQVSLWCLVKGFYPSDIAVEWESNGQPENNYKTTPPVLDSDGSFFLYSKLTVDKSRWQQGNVFSCSVMHEALHNHYTQKSLSLSPGK
chain 2: QAVVTQEPSLTVSPGGTVTLTCRSSTGAVTTSNYANWVQQKPGQAPRGLIGGTNKRAPWTPARFSGSLLGGKAALTITGAQAEDEADYYCALWYSNLWVFGGGTKLTVLGGGGSGGGGQVQLKESGPGLVAPSQSLSITCTVSGFSLSRYSVHWVRQPPGKGLEWLGMIWGGGSTDYNSALKSRLSISKDNSKSQVFLKMNSLQTDDTAMYYCARKHGNYYTMDYWGQGTSVTVSSGGCGGGKVAALKEKVAALKEKVAALKEKVAALKE
heavy: QVQLVQSGAEVKKPGASVKVSCKASGYTFTGSWMNWVRQAPGQGLEWIGRIYPGDGETNYNGKFKDRVTITADKSTSTAYMELSSLRSEDTAVYYCARIYGNNVYFDVWGQGTTVTVSSASTKGPSVFPLAPSSKSTSGGTAALGCLVKDYFPEPVTVSWNSGALTSGVHTFPAVLQSSGLYSLSSVVTVPSSSLGTQTYICNVNHKPSNTKVDKRVEPKSCDKTHTCPPCPAPEAAGGPSVFLFPPKPKDTLMISRTPEVTCVVVDVSHEDPEVKFNWYVDGVEVHNAKTKPREEQYNSTYRVVSVLTVLHQDWLNGKEYKCKVSNKALPAPIEKTISKAKGQPREPQVYTLPPSREEMTKNQVSLSCAVKGFYPSDIAVEWESNGQPENNYKTTPPVLDSDGSFFLVSKLTVDKSRWQQGNVFSCSVMHEALHNRYTQKSLSLSPGK
light: DIQLTQSPSFLSASVGDRVTITCSARSSISFMYWYQQKPGKAPKLLIYDTSNLASGVPSRFSGSGSGTEFTLTISSLEAEDAATYYCQQWSSYPLTFGQGTKLEIKRTVAAPSVFIFPPSDEQLKSGTASVVCLLNNFYPREAKVQWKVDNALQSGNSQESVTEQDSKDSTYSLSSTLTLSKADYEKHKVYACEVTHQGLSSPVTKSFNRGEC
[2]
  EC50 (read off the curve): ~1 nM
[3]
  EC50 (read off the curve): ~0.9 nM
[4]
  binding result: no binding

B3: gpA33 mAb 1×CD3 mAb 2×DR5 mAb 1 (other)
chain 1: DIQLTQSPSFLSASVGDRVTITCSARSSISFMYWYQQKPGKAPKLLIYDTSNLASGVPSRFSGSGSGTEFTLTISSLEAEDAATYYCQQWSSYPLTFGQGTKLEIKGGGSGGGGEVQLVESGGGLVQPGGSLRLSCAASGFTFSTYAMNWVRQAPGKGLEWVGRIRSKYNNYATYYADSVKGRFTISRDDSKNSLYLQMNSLKTEDTAVYYCVRHGNFGNSYVSWFAYWGQGTLVTVSSGGCGGGEVAALEKEVAALEKEVAALEKEVAALEKGGGDKTHTCPPCPAPEAAGGPSVFLFPPKPKDTLMISRTPEVTCVVVDVSHEDPEVKFNWYVDGVEVHNAKTKPREEQYNSTYRVVSVLTVLHQDWLNGKEYKCKVSNKALPAPIEKTISKAKGQPREPQVYTLPPSREEMTKNQVSLWCLVKGFYPSDIAVEWESNGQPENNYKTTPPVLDSDGSFFLYSKLTVDKSRWQQGNVFSCSVMHEALHNHYTQKSLSLSPGK
chain 2: QAVVTQEPSLTVSPGGTVTLTCRSSTGAVTTSNYANWVQQKPGQAPRGLIGGTNKRAPWTPARFSGSLLGGKAALTITGAQAEDEADYYCALWYSNLWVFGGGTKLTVLGGGGSGGGGQVQLVQSGAEVKKPGASVKVSCKASGYTFTGSWMNWVRQAPGQGLEWIGRIYPGDGETNYNGKFKDRVTITADKSTSTAYMELSSLRSEDTAVYYCARIYGNNVYFDVWGQGTTVTVSSGGCGGGKVAALKEKVAALKEKVAALKEKVAALKE
heavy: EVKFLESGGGLVQPGGSLKLSCVASGFDFSRYWMSWVRQAPGKGLEWIGEINPDSNTINYTPSLKDKFIISRDNAKNTLYLQMTKVRSEDTALYYCTRRAYYGNPAWFAYWGQGTLVTVSSASTKGPSVFPLAPSSKSTSGGTAALGCLVKDYFPEPVTVSWNSGALTSGVHTFPAVLQSSGLYSLSSVVTVPSSSLGTQTYICNVNHKPSNTKVDKRVEPKSCDKTHTCPPCPAPEAAGGPSVFLFPPKPKDTLMISRTPEVTCVVVDVSHEDPEVKFNWYVDGVEVHNAKTKPREEQYNSTYRVVSVLTVLHQDWLNGKEYKCKVSNKALPAPIEKTISKAKGQPREPQVYTLPPSREEMTKNQVSLSCAVKGFYPSDIAVEWESNGQPENNYKTTPPVLDSDGSFFLVSKLTVDKSRWQQGNVFSCSVMHEALHNRYTQKSLSLSPGK
light: DIVLTQSPASLAVSLGQRATISCRASKSVSSSGYSYMHWYQQKPGQPPKVLIFLSSNLDSGVPARFSGSGSGTDFTLNIHPVEDGDAATYYCQHSRDLPPTFGGGTKLEIKRTVAAPSVFIFPPSDEQLKSGTASVVCLLNNFYPREAKVQWKVDNALQSGNSQESVTEQDSKDSTYSLSSTLTLSKADYEKHKVYACEVTHQGLSSPVTKSFNRGEC
[3]
  binding result: no binding
[4]
  EC50 (read off the curve): ~0.9 nM

B4: gpA33 mAb 1 x CD3 mAb 2 (bispecific antibody)
first polypeptide chain (VL gpA33 mAb 1 - Linker 1 - VH CD3 mAb 2 D65G - ASTKG - cysteine-containing E-coil): DIQLTQSPSFLSASVGDRVTITCSARSSISFMYWYQQKPGKAPKLLIYDTSNLASGVPSRFSGSGSGTEFTLTISSLEAEDAATYYCQQWSSYPLTFGQGTKLEIKGGGSGGGGEVQLVESGGGLVQPGGSLRLSCAASGFTFSTYAMNWVRQAPGKGLEWVGRIRSKYNNYATYYADSVKGRFTISRDDSKNSLYLQMNSLKTEDTAVYYCVRHGNFGNSYVSWFAYWGQGTLVTVSSASTKGEVAACEKEVAALEKEVAALEKEVAALEK
second polypeptide chain (VL CD3 mAb 2 - Linker 1 - VH gpA33 mAb 1 - ASTKG - cysteine-containing K-coil): QAVVTQEPSLTVSPGGTVTLTCRSSTGAVTTSNYANWVQQKPGQAPRGLIGGTNKRAPWTPARFSGSLLGGKAALTITGAQAEDEADYYCALWYSNLWVFGGGTKLTVLGGGGSGGGGQVQLVQSGAEVKKPGASVKVSCKASGYTFTGSWMNWVRQAPGQGLEWIGRIYPGDGETNYNGKFKDRVTITADKSTSTAYMELSSLRSEDTAVYYCARIYGNNVYFDVWGQGTTVTVSSASTKGKVAACKEKVAALKEKVAALKEKVAALKE
[5]
  binding result: no binding
[6]
  binding result: no binding
[3]
  binding result: no binding
[4]
  binding result: no binding
